{
  "source": "patent US20240092918A1",
  "about": "(Novartis, published 2024)",
  "binders": {"B1": {"name": "121G12 (Humanized CysMab, DAPA) (antibody, human IgG1, kappa)", "heavy": "EVQLVESGGGLVKPGGSLRLSCAASGFTFSTYAMSWVRQAPGKGLEWVATISDAGSYSYYPDNVKGRFTISRDNAKNSLYLQMNSLRAEDTAVYYCARRGSRYEEYYVMDYWGQGTTVTVSSASTKGPSVFPLAPSSKSTSGGTAALGCLVKDYFPCPVTVSWNSGALTSGVHTFPAVLQSSGLYSLSSVVTVPSSSLGTQTYICNVNHKPSNTKVDKRVEPKSCDKTHTCPPCPAPELLGGPSVFLFPPKPKDTLMISRTPEVTCVVVAVSHEDPEVKFNWYVDGVEVHNAKTKPREEQYNSTYRVVSVLTVLHQDWLNGKEYKCKVSNKALAAPIEKTISKAKGQPREPQVYTLPPSREEMTKNQVSLTCLVKGFYPCDIAVEWESNGQPENNYKTTPPVLDSDGSFFLYSKLTVDKSRWQQGNVFSCSVMHEALHNHYTQKSLSLSPGK", "light": "EIVLTQSPATLSVSPGERVTLSCRASQSISNNLHWYQQKPGQAPRLLIKYASQSISGIPARFSGSGSGTDFTLTISSVEPEDFGVYFCQQSSSWLTFGQGTKLEIKRTVAAPSVFIFPPSDEQLKSGTASVVCLLNNFYPREAKVQWKVDNALQSGNSQESVTEQDSKDSTYSLSSTLTLSKADYEKHKVYACEVTHQGLSSPVTKSFNRGEC", "notes": "Human IgG1 kappa, E152C/S375C, D265A/P329A; In the pHrodo assay it carried maleimide-pHrodo (DAR 4); also called 121G12.CysMab.DAPA; 121G12.DAPA"}, "B2": {"name": "674J13 (Humanized, CysMab DAPA) (antibody, human IgG1, kappa, V domains shown)", "VH": "DVQLQESGPGLVKPSQTLSLTCTVSGYSITSGYSWHWIRQHPGKGLEWMAHIHSSGSTNYNPSLKSRITISRDTSKNQFSLKLSSVTAADTAVYYCARGGVQAFAYWGQGTLVTVSS", "VL": "EIVLTQSPATLSASPGERVTMSCSASSSVIYMHWYQQKPGQAPRRWIYDTSKLASGVPARFSGSGSGTDYTLTISSMEPEDAAVYYCQQWSSNPLTFGQGTKLEIKR", "notes": "Human IgG1 kappa, E152C/S375C, D265A/P329A; In the pHrodo assay it carried maleimide-pHrodo (DAR 4); also called 674J13.CysMab.DAPA; 674J13.DAPA"}, "B3": {"name": "121G12 humanized CysMab (Fc Wild Type) (antibody, human IgG1, V domains shown)", "VH": "EVQLVESGGGLVKPGGSLRLSCAASGFTFSTYAMSWVRQAPGKGLEWVATISDAGSYSYYPDNVKGRFTISRDNAKNSLYLQMNSLRAEDTAVYYCARRGSRYEEYYVMDYWGQGTTVTVSS", "VL": "EIVLTQSPATLSVSPGERVTLSCRASQSISNNLHWYQQKPGQAPRLLIKYASQSISGIPARFSGSGSGTDFTLTISSVEPEDFGVYFCQQSSSWLTFGQGTKLEIK", "notes": "Human IgG1 kappa with E152C/S375C (CysMab) and wild type Fc"}},
  "key": {"Human CCR7 [1]": {"target": "T1, Human CCR7 (human, UniProt P32248 25-378)", "T1 sequence": "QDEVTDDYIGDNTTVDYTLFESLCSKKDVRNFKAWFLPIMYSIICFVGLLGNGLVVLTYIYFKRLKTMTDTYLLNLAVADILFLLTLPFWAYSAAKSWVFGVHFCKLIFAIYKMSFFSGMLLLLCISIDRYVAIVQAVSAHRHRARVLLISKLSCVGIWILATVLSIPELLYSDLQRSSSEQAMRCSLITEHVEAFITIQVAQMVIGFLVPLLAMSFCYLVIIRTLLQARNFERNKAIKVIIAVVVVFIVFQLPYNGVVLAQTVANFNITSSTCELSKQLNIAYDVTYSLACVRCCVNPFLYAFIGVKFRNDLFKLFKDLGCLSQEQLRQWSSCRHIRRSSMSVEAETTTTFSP", "assay": "cell-based or functional assay"}, "[2]": {"target": "T2, recombinant CCR7 (Origene #TP306614) (human, UniProt P32248 25-378, limits assumed)", "T2 construct": "Bought protein coated on ELISA plates; also called recombinant hCCR7", "T2 sequence (looked up)": "T1 sequence", "assay": "ELISA, plate coated with 3.5 ug/ml recombinant CCR7 (Origene #TP306614), antibody in serial dilution, detection anti-hFc gamma-HRP, absorbance at 650 nm", "procedure": "Binding and affinity was also assessed in an ELISA-based assay using recombinant CCR7 (Origene #TP306614). Maxisorp™ 384-well plates (Thermo Nunc) were coated with 3.5 μg/ml of recombinant CCR7 diluted in PBS. After blocking with 3% BSA (bovine serum albumin) in PBS for 1 hr at room temperature, washing plates 3× with PBS-T (0.01% Tween 20 in PBS), primary antibodies were added in a serial dilution and incubated for 1 hr at room temperature."}, "Human CCR7 [3]": {"target": "T1, Human CCR7", "assay": "FACS competition on DEL cells (CCR7+), antibody titrated up to 100 nM applied together with the competitor CCL19 kept at 1 uM (panel 'ligand 1uM'), detection anti-hFc.PE, MFI [panel ligand 1uM]"}, "Mouse CCR7": {"target": "T3, Mouse CCR7 (mouse, UniProt P47774 25-378)", "T3 construct": "On NIH3T3 cells or CD4+ T cells of CD-1 mice; also called NIH3T3.mouse CCR7", "T3 sequence": "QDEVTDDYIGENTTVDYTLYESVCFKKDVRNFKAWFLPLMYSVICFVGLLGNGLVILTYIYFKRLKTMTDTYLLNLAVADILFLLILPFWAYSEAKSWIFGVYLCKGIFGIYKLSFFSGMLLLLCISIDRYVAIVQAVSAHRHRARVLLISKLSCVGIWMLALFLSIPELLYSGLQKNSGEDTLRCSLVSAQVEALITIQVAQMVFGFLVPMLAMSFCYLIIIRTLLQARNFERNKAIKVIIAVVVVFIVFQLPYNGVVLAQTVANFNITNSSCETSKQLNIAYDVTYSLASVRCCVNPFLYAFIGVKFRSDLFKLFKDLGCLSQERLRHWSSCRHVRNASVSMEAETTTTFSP", "assay": "FACS, NIH3T3 cell series and CD4+ T cells", "experimental": "(§1) For this purpose, CCR7 positive cells were harvested (adherent cells were detached with Accutase), washed twice with FACS buffer (PBS/3% FCS/0.02% sodium azide) and diluted to approximately 2×10⁶ cells/ml in FACS buffer. All subsequent steps were done on ice to prevent internalization of the receptor. 100 μl cell suspension/well were transferred into 96-well U-bottom plates (Falcon). 2×10⁵ cells/well were incubated with a serial dilution of antibody concentrations of the anti-CCR7 antibody-of-interest ranging across several logs, starting at a high of 100 nM for 60 minutes at 4° C., gently shaking. Following incubation, cells were spun down (1200 rpm, 2 min, 4° C.) and washed three times with FACS buffer. A fluorophore-conjugated anti-hFc gamma-APC (Jackson ImmunoResearch) detection antibody was added at 1:400 and samples were incubated for 1 h on ice in the dark, gently shaken. After a final wash, cells were resuspended in 100 μl of FACS buffer containing 0.2 μg/ml DAPI followed by readout on the flow cytometry machine (BD LSRFortessa Cell Analyzer; Cat #647177). Mean fluorescence intensity (MFI) of live, single cells was calculated in Flowjo 10.0.8 and exported into Graphpad Prism6 for EC50 determination."}, "Rat CCR7": {"target": "T4, Rat CCR7 (rat, UniProt P47774 25-378 (mouse entry))", "T4 construct": "On NIH3T3 cells or CD4+ T cells of Wistar rats; also called NIH3T3.rat CCR7", "T4 chain": "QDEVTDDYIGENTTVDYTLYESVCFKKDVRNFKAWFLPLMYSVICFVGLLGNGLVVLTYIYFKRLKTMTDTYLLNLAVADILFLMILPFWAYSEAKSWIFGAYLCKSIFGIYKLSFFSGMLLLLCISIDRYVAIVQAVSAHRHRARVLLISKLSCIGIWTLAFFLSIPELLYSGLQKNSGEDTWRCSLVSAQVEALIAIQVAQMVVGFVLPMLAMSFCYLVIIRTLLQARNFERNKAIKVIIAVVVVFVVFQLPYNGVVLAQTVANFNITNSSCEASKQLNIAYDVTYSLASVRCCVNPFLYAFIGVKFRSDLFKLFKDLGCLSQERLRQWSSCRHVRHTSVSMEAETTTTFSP", "assay": "FACS, NIH3T3 cell series and CD4+ T cells", "experimental": "as §1"}},
  "data": [
    {"binder": "B1", "values": [
      {"measurement": "pHrodo (6 h MFI), uptake of pHrodo-labelled antibody at 5 ug/ml, CD4+ T cells (2000 receptors)", "setting": "Human CCR7 [1]", "value": 278, "unit": "MFI"},
      {"measurement": "pHrodo (6 h MFI), uptake of pHrodo-labelled antibody at 5 ug/ml, CMLT1 cells (19583 receptors)", "setting": "Human CCR7 [1]", "value": 301, "unit": "MFI"},
      {"measurement": "pHrodo (6 h MFI), uptake of pHrodo-labelled antibody at 5 ug/ml, DEL cells (110685 receptors)", "setting": "Human CCR7 [1]", "value": 1910, "unit": "MFI"},
      {"measurement": "pHrodo (6 h MFI), uptake of pHrodo-labelled antibody at 5 ug/ml, JVM3 cells (8717 receptors)", "setting": "Human CCR7 [1]", "value": 148, "unit": "MFI"},
      {"measurement": "pHrodo (6 h MFI), uptake of pHrodo-labelled antibody at 5 ug/ml, Jeko-1 cells (28852 receptors)", "setting": "Human CCR7 [1]", "value": 450, "unit": "MFI"},
      {"measurement": "pHrodo (6 h MFI), uptake of pHrodo-labelled antibody at 5 ug/ml, KE97 cells (152093 receptors)", "setting": "Human CCR7 [1]", "value": 1570, "unit": "MFI"},
      {"measurement": "pHrodo (6 h MFI), uptake of pHrodo-labelled antibody at 5 ug/ml, L540 cells (167549 receptors)", "setting": "Human CCR7 [1]", "value": 6840, "unit": "MFI"},
      {"measurement": "pHrodo (6 h MFI), uptake of pHrodo-labelled antibody at 5 ug/ml, L1236 cells (61602 receptors)", "setting": "Human CCR7 [1]", "value": 1240, "unit": "MFI"},
      {"measurement": "pHrodo (6 h MFI), uptake of pHrodo-labelled antibody at 5 ug/ml, MJ cells (111121 receptors)", "setting": "Human CCR7 [1]", "value": 1650, "unit": "MFI"},
      {"measurement": "pHrodo (6 h MFI), uptake of pHrodo-labelled antibody at 5 ug/ml, MOTN1 cells (84200 receptors)", "setting": "Human CCR7 [1]", "value": 1030, "unit": "MFI"},
      {"measurement": "pHrodo (6 h MFI), uptake of pHrodo-labelled antibody at 5 ug/ml, Mec2 cells (50840 receptors)", "setting": "Human CCR7 [1]", "value": 1340, "unit": "MFI"},
      {"measurement": "EC50 (read off the curve)", "setting": "[2]", "value": "~0.7", "unit": "nM"}
    ]},
    {"binder": "B2", "values": [
      {"measurement": "pHrodo (6 h MFI), uptake of pHrodo-labelled antibody at 5 ug/ml, CD4+ T cells (2000 receptors)", "setting": "Human CCR7 [1]", "value": 402, "unit": "MFI"},
      {"measurement": "pHrodo (6 h MFI), uptake of pHrodo-labelled antibody at 5 ug/ml, CMLT1 cells (19583 receptors)", "setting": "Human CCR7 [1]", "value": 561, "unit": "MFI"},
      {"measurement": "pHrodo (6 h MFI), uptake of pHrodo-labelled antibody at 5 ug/ml, DEL cells (110685 receptors)", "setting": "Human CCR7 [1]", "value": 3780, "unit": "MFI"},
      {"measurement": "pHrodo (6 h MFI), uptake of pHrodo-labelled antibody at 5 ug/ml, JVM3 cells (8717 receptors)", "setting": "Human CCR7 [1]", "value": 146, "unit": "MFI"},
      {"measurement": "pHrodo (6 h MFI), uptake of pHrodo-labelled antibody at 5 ug/ml, Jeko-1 cells (28852 receptors)", "setting": "Human CCR7 [1]", "value": 1390, "unit": "MFI"},
      {"measurement": "pHrodo (6 h MFI), uptake of pHrodo-labelled antibody at 5 ug/ml, KE97 cells (152093 receptors)", "setting": "Human CCR7 [1]", "value": 4420, "unit": "MFI"},
      {"measurement": "pHrodo (6 h MFI), uptake of pHrodo-labelled antibody at 5 ug/ml, L540 cells (167549 receptors)", "setting": "Human CCR7 [1]", "value": 11800, "unit": "MFI"},
      {"measurement": "pHrodo (6 h MFI), uptake of pHrodo-labelled antibody at 5 ug/ml, L1236 cells (61602 receptors)", "setting": "Human CCR7 [1]", "value": 5820, "unit": "MFI"},
      {"measurement": "pHrodo (6 h MFI), uptake of pHrodo-labelled antibody at 5 ug/ml, MJ cells (111121 receptors)", "setting": "Human CCR7 [1]", "value": 3260, "unit": "MFI"},
      {"measurement": "pHrodo (6 h MFI), uptake of pHrodo-labelled antibody at 5 ug/ml, MOTN1 cells (84200 receptors)", "setting": "Human CCR7 [1]", "value": 2540, "unit": "MFI"},
      {"measurement": "pHrodo (6 h MFI), uptake of pHrodo-labelled antibody at 5 ug/ml, Mec2 cells (50840 receptors)", "setting": "Human CCR7 [1]", "value": 3000, "unit": "MFI"},
      {"measurement": "EC50 (read off the curve)", "setting": "Human CCR7 [3]", "value": "2 to 3", "unit": "nM"}
    ]},
    {"binder": "B3", "values": [
      {"measurement": "binding result", "setting": "Mouse CCR7", "value": "no binding"},
      {"measurement": "binding result", "setting": "Rat CCR7", "value": "no binding"}
    ]}
  ]
}
